These results are taken from patent publication US20190194334A1.

This test has as its target cell surface (plasma membrane) nucleolin of human tumor cells (human) (UniProt P19338). Nature of the test: flow cytometry of non-permeabilized MCF-7 cells, dot plot of side scatter against FITC fluorescence [B].
Sequence of UniProt P19338 (P19338 2-710 limits assumed): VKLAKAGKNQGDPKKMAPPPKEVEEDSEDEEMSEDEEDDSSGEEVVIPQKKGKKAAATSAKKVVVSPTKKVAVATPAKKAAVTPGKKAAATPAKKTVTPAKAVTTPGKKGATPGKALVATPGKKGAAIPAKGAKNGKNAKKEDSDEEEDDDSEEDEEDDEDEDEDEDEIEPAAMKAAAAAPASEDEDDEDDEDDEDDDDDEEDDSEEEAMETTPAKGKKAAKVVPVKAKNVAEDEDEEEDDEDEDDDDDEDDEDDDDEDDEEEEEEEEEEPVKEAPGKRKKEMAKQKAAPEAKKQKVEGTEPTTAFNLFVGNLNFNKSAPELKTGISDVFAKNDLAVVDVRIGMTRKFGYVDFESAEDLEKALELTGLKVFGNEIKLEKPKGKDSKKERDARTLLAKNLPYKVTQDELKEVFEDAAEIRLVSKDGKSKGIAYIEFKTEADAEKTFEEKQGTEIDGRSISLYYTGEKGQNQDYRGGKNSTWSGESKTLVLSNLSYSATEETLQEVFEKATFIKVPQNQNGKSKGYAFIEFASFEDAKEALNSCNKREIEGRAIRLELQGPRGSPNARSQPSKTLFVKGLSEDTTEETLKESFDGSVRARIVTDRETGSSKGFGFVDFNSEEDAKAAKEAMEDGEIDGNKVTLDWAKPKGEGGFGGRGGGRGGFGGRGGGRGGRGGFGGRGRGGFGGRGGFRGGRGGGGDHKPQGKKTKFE

Regarding Control IgG-FITC (antibody), the percent of cells in the FITC-positive gate is 1.5%.
